In publication PMC6030378:

Target: human IgG1 Fc fragment released from ROR-ED-Fc by 3C protease (human)
Assay: SEC; Superdex 200 10/300 of the fusion protein cleaved with 3C protease; 50 mM HEPES, 500 mM NaCl, 150 mM KCl, 300 mM arginine, 5% glycerol; ROR-ED at 12.4 ml, Fc at 14.3 ml; mass estimated against standards, glycans considered

human IgG1 Fc fragment released from ROR-ED-Fc by 3C protease (domain or fragment)
stoichiometry N: 2
